From patent US20230250158A1 (TALEM THERAPEUTICS, published 2023)
Read-outs that look alike come from different tables or passages of the source.

B1: 23-H7 (antibody, V domains shown)
VH: QVQLVQSGAEVKLPGASMKVSCKASGYTFSTYYMHWVRQAPGQGPEWMGVIDPSGGTTSYAQKFHDRIAMTRDTSTSTAYLELSSLRSEDMAVYYCARGGFADAVDYWGQGTLVTVSS
VL: NFMLTQPHSVSGSPGKTVTISCTRNSGSIAGNYVQWYQQRPGSAPTTVIYEDNQRPSGVPDRFSGSIDSSSNSASLTISGLKTEDEADYYCQSYDASHLHVIFGGGTKVTVL
notes: also called bin 2
B2: 22-D9 (antibody, V domains shown)
VH: QVQLVQSGAEVKKPGSSVNVSCKTSGGTFNTYSINWVRQAPGQGLEWMGEIIPIFDKPNYAQKFQGRVTITADESTSTAYMELTSLRSDDTAVYYCARGTGYYYGMDVWGQGTTVTVSS
VL: QSVLTQPPSVSGAPRQTVTISCFGSRSNIGNYPVNWYHQVPGKAPKVVVYYDDLLPSGISDRFSGYKSGTSASLTISGLRSEDEADYYCATWDDSLNVWVFGGGTKLTVL
notes: also called bin 4
B3: 22-E7 (antibody, V domains shown)
VH: QVQLVESGGGVVQPGTSLRLSCAASGFTFNNYPMFWVRQAPGKGLEWLALISYDGNHKVYADSVKGRFTISRDNAKNTLYLQMHSLRAEDTALYYCASDLSGAEDSWGQGTLVTVSS
VL: QSALTQPASVSGSPGQSITISCTGTSSDVGGYNYVSWYQQHPGKAPKLLIYEVSNRPSGVSNRFSGSKSGNTASLTISGLQAEDEADYYCSSYTSSSTWVFGGGTKLTVL
notes: also called bin C
B4: 22-F7 (antibody, V domains shown)
VH: QVQLVESGGGVVQPGRSLRLSCAASGFSFTNYGMHWVRQAPGKGLEWVAVISYDGSIKYYEDSLKGRFTVSRDNSKKTLYLQMNSLRAEDTAVYYCTRERGTGIDYWGLGTLVTVSS
VL: QSALTQPASVSGYPGQSITLSCTGTKSDIGAYNYVSWYQQHPGKAPKLMVYDVSNRPSGLSNRFSGSKSDNTASLTISGLQAEDEAHYYCSSYTTSGTVVFGGGTKVTVL
notes: also called bin C
B5: 2-A6 (antibody, V domains shown)
VH: QVTLRESGPALVKPTQTLTLTCTFSGFSLNTRGMSVSWIRQPPGKALEWLALIDWEDDKFYRTSLMTRLTISKDIFKNQVVLTMTNVDPVDTGTYYCARTYSVGVKYFGMDVWGQGTTVTVSS
VL: SSELTQDPAVSVALGQTVRITCQGDSLRNYYASWYRQEPGQAPILLIYGGNYRPSGIPDRFSGSSSGNTASLTITGAQAEDEADYYCNSRDSSGNHVVFGGGTKLTVL
notes: also called bin S2
B6: 23-H7 Fab (Fab, V domains shown)
VH: QVQLVQSGAEVKLPGASMKVSCKASGYTFSTYYMHWVRQAPGQGPEWMGVIDPSGGTTSYAQKFHDRIAMTRDTSTSTAYLELSSLRSEDMAVYYCARGGFADAVDYWGQGTLVTVSS
VL: NFMLTQPHSVSGSPGKTVTISCTRNSGSIAGNYVQWYQQRPGSAPTTVIYEDNQRPSGVPDRFSGSIDSSSNSASLTISGLKTEDEADYYCQSYDASHLHVIFGGGTKVTVL

How the values were obtained:
G476S = assay: ELISA, heat map
Y453F = assay: ELISA, heat map
N501Y = assay: ELISA, heat map
K417N = assay: ELISA, heat map
N439K = assay: ELISA, heat map
E484K = assay: ELISA, heat map
N354D = assay: ELISA, heat map
A435S = assay: ELISA, heat map
V367F = assay: ELISA, heat map
K458R = assay: ELISA, heat map
V483A = assay: ELISA, heat map
B.1.351 (S1) = assay: ELISA, heat map
W436R = assay: ELISA, heat map
[1] = target: T1, SARS-CoV-2 Spike RBD (tagless) (SARS-CoV-2, UniProt P0DTC2 319-541)
[2] = target: T1, SARS-CoV-2 Spike RBD (tagless); assay: Octet BLI; tagless RBD as analyte over 23-H7-coated AHC sensors; 1:1 kinetic fit
[3] = target: SARS-CoV-2 Spike trimer (recombinant, wild type) (SARS-CoV-2, UniProt P0DTC2 14-1213); assay: ELISA on plate-adsorbed recombinant Spike
F342L = assay: ELISA, heat map

Binder	binding result (G476S)	binding result (Y453F)	binding result (N501Y)	binding result (K417N)	binding result (N439K)	binding result (E484K)	binding result (N354D)	binding result (A435S)	binding result (V367F)	binding result (K458R)	binding result (V483A)	binding result (B.1.351 (S1))	binding result (W436R)	Kd [1] [nM]	EC50 (read off the curve) [3] [ng/mL]	further results
B1	binds	binds	binds	binds	binds	binds	binds	binds	binds	binds	binds	binds	binds	4	~2	Kd [2]: 4 nM
B2	binds	binds	binds	binds	binds	binds	binds	binds	binds	binds	binds	no binding	binds		~10	binding result (F342L): binds
B3												binds				
B4												binds				
B5												no binding				
B6														4.6		
